Measured values as given in paper PMC12753876, “The CRY1-HsF predicted interaction interface serves as a molecular platform for bioengineering or selecting modulating mutants” (Frontiers in Plant Science, 2025).
Each block holds one binder with its values, some of them ahead of it.

What was measured:
Assay in all cases: two-hybrid; CRY1 as prey in pGADT7 (AD), HsF as bait in pGBKT7 (BD), co-transformed into yeast Y187; liquid beta-galactosidase assay with CPRG, Miller units; not detected (ND) if OD578 <0.01 after 3 h of color development
Conditions in all cases: partners not purified
HsFA1d^WT in pGBKT7 (BD) = molecular target: T1, HsFA1d^WT in pGBKT7 (BD) (Arabidopsis thaliana, UniProt Q9LQM7 1-485)
T1 construct: source: yeast two-hybrid fusion (yeast Y187)

HsFA3^WT in pGBKT7 (BD) = molecular target: T2, HsFA3^WT in pGBKT7 (BD) (Arabidopsis thaliana, UniProt Q8GYY1 1-412)
T2 construct: also called AtHsFA3; source: yeast two-hybrid fusion (yeast Y187)

HsFA6a^WT in pGBKT7 (BD) = molecular target: T3, HsFA6a^WT in pGBKT7 (BD) (Arabidopsis thaliana, UniProt Q1PDN3 1-282)
T3 construct: source: yeast two-hybrid fusion (yeast Y187)
T3 sequence (looked up): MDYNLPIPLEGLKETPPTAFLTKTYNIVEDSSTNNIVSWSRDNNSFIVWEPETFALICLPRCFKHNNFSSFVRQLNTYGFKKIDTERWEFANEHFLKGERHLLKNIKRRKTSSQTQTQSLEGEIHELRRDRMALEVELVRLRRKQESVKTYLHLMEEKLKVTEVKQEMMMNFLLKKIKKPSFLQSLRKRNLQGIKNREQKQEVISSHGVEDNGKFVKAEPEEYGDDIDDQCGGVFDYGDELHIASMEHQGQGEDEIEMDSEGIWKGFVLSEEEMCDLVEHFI

HsFA6b^WT in pGBKT7 (BD) = molecular target: T4, HsFA6b^WT in pGBKT7 (BD) (Arabidopsis thaliana, UniProt Q9LUH8 1-406)
T4 construct: source: yeast two-hybrid fusion (yeast Y187)

HsFA7a in pGBKT7 (BD) = molecular target: T5, HsFA7a in pGBKT7 (BD) (Arabidopsis thaliana, UniProt Q9SV12 1-272)
T5 construct: also called HsFA7^WT; source: yeast two-hybrid fusion (yeast Y187)

HsFC1^WT in pGBKT7 (BD) = molecular target: T6, HsFC1^WT in pGBKT7 (BD) (Arabidopsis thaliana, UniProt Q9LV52 1-330)
T6 construct: source: yeast two-hybrid fusion (yeast Y187)

[1] = molecular target: T7, HsFA3^E173A in pGBKT7 (BD) (Arabidopsis thaliana, UniProt Q8GYY1 1-412, E173A)
T7 construct: source: yeast two-hybrid fusion (yeast Y187)

[2] = molecular target: T8, HsFA3^K174A in pGBKT7 (BD) (Arabidopsis thaliana, UniProt Q8GYY1 1-412, K174A)
T8 construct: source: yeast two-hybrid fusion (yeast Y187)

[3] = molecular target: T9, HsFA3^K177A in pGBKT7 (BD) (Arabidopsis thaliana, UniProt Q8GYY1 1-412, K177A)
T9 construct: source: yeast two-hybrid fusion (yeast Y187)

[4] = molecular target: T10, HsFA3^E178A in pGBKT7 (BD) (Arabidopsis thaliana, UniProt Q8GYY1 1-412, E178A)
T10 construct: source: yeast two-hybrid fusion (yeast Y187)

[5] = molecular target: T11, HsFA3^E188A in pGBKT7 (BD) (Arabidopsis thaliana, UniProt Q8GYY1 1-412, E188A)
T11 construct: Not in the list of plasmids of the methods; source: yeast two-hybrid fusion (yeast Y187)

[6] = molecular target: T12, HsFC1^R129E in pGBKT7 (BD) (Arabidopsis thaliana, UniProt Q9LV52 1-330, R129E)
T12 construct: source: yeast two-hybrid fusion (yeast Y187)
T12 sequence (Q9LV52 whole entry R129E, the tested form may be a part): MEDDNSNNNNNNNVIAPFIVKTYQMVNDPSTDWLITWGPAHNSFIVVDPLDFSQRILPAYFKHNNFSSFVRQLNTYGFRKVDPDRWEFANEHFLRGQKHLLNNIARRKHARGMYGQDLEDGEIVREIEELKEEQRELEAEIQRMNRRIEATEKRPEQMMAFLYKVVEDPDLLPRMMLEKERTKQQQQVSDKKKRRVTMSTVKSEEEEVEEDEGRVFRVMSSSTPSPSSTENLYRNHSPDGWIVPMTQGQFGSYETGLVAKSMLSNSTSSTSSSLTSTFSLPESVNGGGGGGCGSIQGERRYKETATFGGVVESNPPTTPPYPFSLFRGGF

T2 sequence (Q8GYY1 whole entry, the tested form may be a part): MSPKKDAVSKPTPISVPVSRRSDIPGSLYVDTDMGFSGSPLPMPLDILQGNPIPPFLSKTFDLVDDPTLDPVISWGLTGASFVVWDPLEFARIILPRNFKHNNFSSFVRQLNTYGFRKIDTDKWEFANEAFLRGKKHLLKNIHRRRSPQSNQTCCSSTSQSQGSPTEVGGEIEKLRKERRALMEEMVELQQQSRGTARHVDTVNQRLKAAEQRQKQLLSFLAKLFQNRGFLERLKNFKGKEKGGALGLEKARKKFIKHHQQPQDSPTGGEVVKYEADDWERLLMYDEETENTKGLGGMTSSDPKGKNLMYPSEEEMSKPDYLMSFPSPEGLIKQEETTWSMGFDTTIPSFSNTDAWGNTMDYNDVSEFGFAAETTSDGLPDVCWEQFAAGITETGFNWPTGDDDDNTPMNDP
T5 sequence (Q9SV12 whole entry, the tested form may be a part): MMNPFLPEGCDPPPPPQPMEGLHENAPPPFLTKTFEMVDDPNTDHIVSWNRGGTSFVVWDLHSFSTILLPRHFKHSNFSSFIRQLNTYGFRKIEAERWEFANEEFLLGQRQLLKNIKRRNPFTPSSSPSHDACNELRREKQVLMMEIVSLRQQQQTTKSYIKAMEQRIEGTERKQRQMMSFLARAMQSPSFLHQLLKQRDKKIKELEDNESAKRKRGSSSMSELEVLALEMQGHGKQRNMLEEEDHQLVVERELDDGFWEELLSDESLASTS
T9 sequence (Q8GYY1 whole entry K177A, the tested form may be a part): as the sequence (Q8GYY1 whole entry, the tested form may be a part) above, with K177A counted along it
T6 sequence (Q9LV52 whole entry, the tested form may be a part): as the sequence (Q9LV52 whole entry R129E, the tested form may be a part) above, with E129R counted along it
T4 sequence (Q9LUH8 whole entry, the tested form may be a part): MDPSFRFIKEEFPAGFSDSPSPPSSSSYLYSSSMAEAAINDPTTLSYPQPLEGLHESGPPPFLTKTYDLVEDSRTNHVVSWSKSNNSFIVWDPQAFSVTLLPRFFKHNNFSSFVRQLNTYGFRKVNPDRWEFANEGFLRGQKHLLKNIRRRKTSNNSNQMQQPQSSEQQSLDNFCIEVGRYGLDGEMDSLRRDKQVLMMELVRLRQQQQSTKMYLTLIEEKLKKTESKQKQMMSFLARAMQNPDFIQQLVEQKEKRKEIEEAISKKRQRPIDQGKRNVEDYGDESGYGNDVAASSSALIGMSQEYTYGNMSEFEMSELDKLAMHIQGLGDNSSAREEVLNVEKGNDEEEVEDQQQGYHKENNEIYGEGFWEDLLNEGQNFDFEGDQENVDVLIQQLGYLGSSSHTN
T8 sequence (Q8GYY1 whole entry K174A, the tested form may be a part): as the sequence (Q8GYY1 whole entry, the tested form may be a part) above, with K174A counted along it
T1 sequence (Q9LQM7 whole entry, the tested form may be a part): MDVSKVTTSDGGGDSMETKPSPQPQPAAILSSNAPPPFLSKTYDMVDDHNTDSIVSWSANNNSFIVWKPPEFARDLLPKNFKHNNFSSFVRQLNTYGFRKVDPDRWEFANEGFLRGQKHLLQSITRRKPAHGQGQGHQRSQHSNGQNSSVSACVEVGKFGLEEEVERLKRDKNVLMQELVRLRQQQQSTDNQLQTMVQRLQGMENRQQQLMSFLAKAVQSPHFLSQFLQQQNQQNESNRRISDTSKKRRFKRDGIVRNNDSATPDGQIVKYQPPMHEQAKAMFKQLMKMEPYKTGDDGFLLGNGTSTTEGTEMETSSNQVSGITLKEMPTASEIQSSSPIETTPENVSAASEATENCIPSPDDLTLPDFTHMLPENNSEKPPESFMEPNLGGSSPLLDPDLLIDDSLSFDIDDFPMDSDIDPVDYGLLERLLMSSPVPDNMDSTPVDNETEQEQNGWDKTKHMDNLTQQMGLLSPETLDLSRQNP
T11 sequence (Q8GYY1 whole entry E188A, the tested form may be a part): as the sequence (Q8GYY1 whole entry, the tested form may be a part) above, with E188A counted along it
T7 sequence (Q8GYY1 whole entry E173A, the tested form may be a part): as the sequence (Q8GYY1 whole entry, the tested form may be a part) above, with E173A counted along it
T10 sequence (Q8GYY1 whole entry E178A, the tested form may be a part): as the sequence (Q8GYY1 whole entry, the tested form may be a part) above, with E178A counted along it

B1: CRY1^(PHR WT) in pGADT7 (AD) (domain or fragment, Arabidopsis thaliana, UniProt Q43125 1-508, looked up)
chain: MSGSVSGCGSGGCSIVWFRRDLRVEDNPALAAAVRAGPVIALFVWAPEEEGHYHPGRVSRWWLKNSLAQLDSSLRSLGTCLITKRSTDSVASLLDVVKSTGASQIFFNHLYDPLSLVRDHRAKDVLTAQGIAVRSFNADLLYEPWEVTDELGRPFSMFAAFWERCLSMPYDPESPLLPPKKIISGDVSKCVADPLVFEDDSEKGSNALLARAWSPGWSNGDKALTTFINGPLLEYSKNRRKADSATTSFLSPHLHFGEVSVRKVFHLVRIKQVAWANEGNEAGEESVNLFLKSIGLREYSRYISFNHPYSHERPLLGHLKFFPWAVDENYFKAWRQGRTGYPLVDAGMRELWATGWLHDRIRVVVSSFFVKVLQLPWRWGMKYFWDTLLDADLESDALGWQYITGTLPDSREFDRIDNPQFEGYKFDPNGEYVRRWLPELSRLPTDWIHHPWNAPESVLQAAGIELGSNYPLPIVGLDEAKARLHEALSQMWQLEAASRAAIENGSEE
notes: cryptochrome 1 (AtCRY1), Arabidopsis thaliana, PHR domain, residues 1-508; also called CRY1 PHR domain; source: yeast two-hybrid fusion (yeast Y187)
beta-galactosidase activity (Miller units) (HsFA1d^WT in pGBKT7 (BD)): 7 Miller units
beta-galactosidase activity (Miller units) (HsFA3^WT in pGBKT7 (BD)): 250 Miller units
beta-galactosidase activity (Miller units) (HsFA6a^WT in pGBKT7 (BD)): < 0.5 Miller units
beta-galactosidase activity (Miller units) (HsFA6b^WT in pGBKT7 (BD)): 45 Miller units
beta-galactosidase activity (Miller units) (HsFA7a in pGBKT7 (BD)): 25 Miller units
beta-galactosidase activity (Miller units) (HsFC1^WT in pGBKT7 (BD)): < 0.5 Miller units
decrease of Y2H interaction relative to WT [1]: 29%
decrease of Y2H interaction relative to WT [2]: 64%
decrease of Y2H interaction relative to WT [3]: 62%
fold change of Miller units relative to WT [4]: 2 fold
decrease of Y2H interaction relative to WT [5]: 61%
fold increase of Y2H interaction relative to WT [6]: ~10 fold

B3: CRY1^(PHR W352A) in pGADT7 (AD) (domain or fragment, Arabidopsis thaliana, UniProt Q43125 1-508, looked up)
chain: MSGSVSGCGSGGCSIVWFRRDLRVEDNPALAAAVRAGPVIALFVWAPEEEGHYHPGRVSRWWLKNSLAQLDSSLRSLGTCLITKRSTDSVASLLDVVKSTGASQIFFNHLYDPLSLVRDHRAKDVLTAQGIAVRSFNADLLYEPWEVTDELGRPFSMFAAFWERCLSMPYDPESPLLPPKKIISGDVSKCVADPLVFEDDSEKGSNALLARAWSPGWSNGDKALTTFINGPLLEYSKNRRKADSATTSFLSPHLHFGEVSVRKVFHLVRIKQVAWANEGNEAGEESVNLFLKSIGLREYSRYISFNHPYSHERPLLGHLKFFPWAVDENYFKAWRQGRTGYPLVDAGMRELAATGWLHDRIRVVVSSFFVKVLQLPWRWGMKYFWDTLLDADLESDALGWQYITGTLPDSREFDRIDNPQFEGYKFDPNGEYVRRWLPELSRLPTDWIHHPWNAPESVLQAAGIELGSNYPLPIVGLDEAKARLHEALSQMWQLEAASRAAIENGSEE
notes: cryptochrome 1 (AtCRY1), Arabidopsis thaliana, PHR domain, residues 1-508; also called CRY1^W352A; source: yeast two-hybrid fusion (yeast Y187)
decrease of Y2H interaction relative to WT (HsFA3^WT in pGBKT7 (BD)): 51%

The remaining lines, values ahead:

decrease of Y2H interaction relative to WT (HsFA3^WT in pGBKT7 (BD)): 12%
B2: CRY1^(PHR R435A) in pGADT7 (AD) (domain or fragment, Arabidopsis thaliana, UniProt Q43125 1-508, looked up)
chain: MSGSVSGCGSGGCSIVWFRRDLRVEDNPALAAAVRAGPVIALFVWAPEEEGHYHPGRVSRWWLKNSLAQLDSSLRSLGTCLITKRSTDSVASLLDVVKSTGASQIFFNHLYDPLSLVRDHRAKDVLTAQGIAVRSFNADLLYEPWEVTDELGRPFSMFAAFWERCLSMPYDPESPLLPPKKIISGDVSKCVADPLVFEDDSEKGSNALLARAWSPGWSNGDKALTTFINGPLLEYSKNRRKADSATTSFLSPHLHFGEVSVRKVFHLVRIKQVAWANEGNEAGEESVNLFLKSIGLREYSRYISFNHPYSHERPLLGHLKFFPWAVDENYFKAWRQGRTGYPLVDAGMRELWATGWLHDRIRVVVSSFFVKVLQLPWRWGMKYFWDTLLDADLESDALGWQYITGTLPDSREFDRIDNPQFEGYKFDPNGEYVRAWLPELSRLPTDWIHHPWNAPESVLQAAGIELGSNYPLPIVGLDEAKARLHEALSQMWQLEAASRAAIENGSEE
notes: cryptochrome 1 (AtCRY1), Arabidopsis thaliana, PHR domain, residues 1-508; also called CRY1^R435A; source: yeast two-hybrid fusion (yeast Y187)

decrease of Y2H interaction relative to WT (HsFA3^WT in pGBKT7 (BD)): 56%
B4: CRY1^(PHR K332A) in pGADT7 (AD) (domain or fragment, Arabidopsis thaliana, UniProt Q43125 1-508, looked up)
chain: MSGSVSGCGSGGCSIVWFRRDLRVEDNPALAAAVRAGPVIALFVWAPEEEGHYHPGRVSRWWLKNSLAQLDSSLRSLGTCLITKRSTDSVASLLDVVKSTGASQIFFNHLYDPLSLVRDHRAKDVLTAQGIAVRSFNADLLYEPWEVTDELGRPFSMFAAFWERCLSMPYDPESPLLPPKKIISGDVSKCVADPLVFEDDSEKGSNALLARAWSPGWSNGDKALTTFINGPLLEYSKNRRKADSATTSFLSPHLHFGEVSVRKVFHLVRIKQVAWANEGNEAGEESVNLFLKSIGLREYSRYISFNHPYSHERPLLGHLKFFPWAVDENYFAAWRQGRTGYPLVDAGMRELWATGWLHDRIRVVVSSFFVKVLQLPWRWGMKYFWDTLLDADLESDALGWQYITGTLPDSREFDRIDNPQFEGYKFDPNGEYVRRWLPELSRLPTDWIHHPWNAPESVLQAAGIELGSNYPLPIVGLDEAKARLHEALSQMWQLEAASRAAIENGSEE
notes: cryptochrome 1 (AtCRY1), Arabidopsis thaliana, PHR domain, residues 1-508; source: yeast two-hybrid fusion (yeast Y187)

decrease of Y2H interaction relative to WT (HsFA3^WT in pGBKT7 (BD)): 41%
B5: CRY1^(PHR R335A) in pGADT7 (AD) (domain or fragment, Arabidopsis thaliana, UniProt Q43125 1-508, looked up)
chain: MSGSVSGCGSGGCSIVWFRRDLRVEDNPALAAAVRAGPVIALFVWAPEEEGHYHPGRVSRWWLKNSLAQLDSSLRSLGTCLITKRSTDSVASLLDVVKSTGASQIFFNHLYDPLSLVRDHRAKDVLTAQGIAVRSFNADLLYEPWEVTDELGRPFSMFAAFWERCLSMPYDPESPLLPPKKIISGDVSKCVADPLVFEDDSEKGSNALLARAWSPGWSNGDKALTTFINGPLLEYSKNRRKADSATTSFLSPHLHFGEVSVRKVFHLVRIKQVAWANEGNEAGEESVNLFLKSIGLREYSRYISFNHPYSHERPLLGHLKFFPWAVDENYFKAWAQGRTGYPLVDAGMRELWATGWLHDRIRVVVSSFFVKVLQLPWRWGMKYFWDTLLDADLESDALGWQYITGTLPDSREFDRIDNPQFEGYKFDPNGEYVRRWLPELSRLPTDWIHHPWNAPESVLQAAGIELGSNYPLPIVGLDEAKARLHEALSQMWQLEAASRAAIENGSEE
notes: as for B4

increase of Miller units relative to WT (HsFA3^WT in pGBKT7 (BD)): 27%
B6: CRY1^(PHR R211A) in pGADT7 (AD) (domain or fragment, Arabidopsis thaliana, UniProt Q43125 1-508, looked up)
chain: MSGSVSGCGSGGCSIVWFRRDLRVEDNPALAAAVRAGPVIALFVWAPEEEGHYHPGRVSRWWLKNSLAQLDSSLRSLGTCLITKRSTDSVASLLDVVKSTGASQIFFNHLYDPLSLVRDHRAKDVLTAQGIAVRSFNADLLYEPWEVTDELGRPFSMFAAFWERCLSMPYDPESPLLPPKKIISGDVSKCVADPLVFEDDSEKGSNALLAAAWSPGWSNGDKALTTFINGPLLEYSKNRRKADSATTSFLSPHLHFGEVSVRKVFHLVRIKQVAWANEGNEAGEESVNLFLKSIGLREYSRYISFNHPYSHERPLLGHLKFFPWAVDENYFKAWRQGRTGYPLVDAGMRELWATGWLHDRIRVVVSSFFVKVLQLPWRWGMKYFWDTLLDADLESDALGWQYITGTLPDSREFDRIDNPQFEGYKFDPNGEYVRRWLPELSRLPTDWIHHPWNAPESVLQAAGIELGSNYPLPIVGLDEAKARLHEALSQMWQLEAASRAAIENGSEE
notes: cryptochrome 1 (AtCRY1), Arabidopsis thaliana, PHR domain, residues 1-508; also called CRY1^R211A; source: yeast two-hybrid fusion (yeast Y187)
